Each block holds one binder with its values, some of them ahead of it.
Assays:
Test in all cases: two-hybrid library CCNG1;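 further: natural log of median RNA to DNA barcode read ratio; higher means stronger binding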
4H492-bN = molecular target: T1, 4H492-bN
T1 chain: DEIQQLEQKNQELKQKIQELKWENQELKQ

4H741-bN = molecular target: T2, 4H741-bN
T2 chain: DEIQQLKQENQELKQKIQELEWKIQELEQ

4H796-bA = molecular target: T3, 4H796-bA
T3 chain: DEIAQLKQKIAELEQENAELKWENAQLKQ

P1A-bS = molecular target: T4, P1A-bS
T4 chain: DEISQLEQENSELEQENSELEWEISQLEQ

4H3427-bH = molecular target: T5, 4H3427-bH
T5 chain: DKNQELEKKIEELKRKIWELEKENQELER

4H170-bH = molecular target: T6, 4H170-bH
T6 chain: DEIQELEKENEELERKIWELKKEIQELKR

4H797-bH = molecular target: T7, 4H797-bH
T7 chain: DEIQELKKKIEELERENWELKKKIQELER

4H855-bH = molecular target: T8, 4H855-bH
T8 chain: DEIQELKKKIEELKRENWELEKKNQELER

4H457-bH = molecular target: T9, 4H457-bH
T9 chain: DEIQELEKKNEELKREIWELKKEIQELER

4H3112-bH = molecular target: T10, 4H3112-bH
T10 chain: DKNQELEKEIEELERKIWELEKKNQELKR

4H918-bH = molecular target: T11, 4H918-bH
T11 chain: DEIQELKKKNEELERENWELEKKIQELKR

4H953-bH = molecular target: T12, 4H953-bH
T12 chain: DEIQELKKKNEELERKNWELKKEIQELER

4H3926-bH = molecular target: T13, 4H3926-bH
T13 chain: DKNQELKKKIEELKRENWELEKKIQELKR

4H346-bH = molecular target: T14, 4H346-bH
T14 chain: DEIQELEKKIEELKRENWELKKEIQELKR

4H2673-bH = molecular target: T15, 4H2673-bH
T15 chain: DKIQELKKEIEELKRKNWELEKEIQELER

4H2627-bH = molecular target: T16, 4H2627-bH
T16 chain: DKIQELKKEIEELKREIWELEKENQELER

4H2702-bH = molecular target: T17, 4H2702-bH
T17 chain: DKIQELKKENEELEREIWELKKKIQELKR

4H1831-bH = molecular target: T18, 4H1831-bH
T18 chain: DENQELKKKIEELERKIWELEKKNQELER

4H575-bH = molecular target: T19, 4H575-bH
T19 chain: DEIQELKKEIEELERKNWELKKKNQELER

4H754-bH = molecular target: T20, 4H754-bH
T20 chain: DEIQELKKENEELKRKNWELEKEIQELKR

4H3010-bH = molecular target: T21, 4H3010-bH
T21 chain: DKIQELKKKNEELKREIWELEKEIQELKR

4H683-bH = molecular target: T22, 4H683-bH
T22 chain: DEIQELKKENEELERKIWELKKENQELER

4H780-bH = molecular target: T23, 4H780-bH
T23 chain: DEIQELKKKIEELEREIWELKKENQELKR

4H4073-bH = molecular target: T24, 4H4073-bH
T24 chain: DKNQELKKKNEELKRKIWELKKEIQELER

4H968-bH = molecular target: T25, 4H968-bH
T25 chain: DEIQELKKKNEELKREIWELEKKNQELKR

4H2586-bH = molecular target: T26, 4H2586-bH
T26 chain: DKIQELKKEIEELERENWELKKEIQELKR

P9A-bS = molecular target: T27, P9A-bS
T27 chain: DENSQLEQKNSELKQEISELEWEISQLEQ

P6A-bS = molecular target: T28, P6A-bS
T28 chain: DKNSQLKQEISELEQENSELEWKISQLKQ

P7A-bS = molecular target: T29, P7A-bS
T29 chain: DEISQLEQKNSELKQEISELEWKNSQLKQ

P3A-bS = molecular target: T30, P3A-bS
T30 chain: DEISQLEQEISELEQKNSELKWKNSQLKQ

P4A-bS = molecular target: T31, P4A-bS
T31 chain: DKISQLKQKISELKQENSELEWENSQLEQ

P2A-bS = molecular target: T32, P2A-bS
T32 chain: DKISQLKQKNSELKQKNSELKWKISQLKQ

P8A-bS = molecular target: T33, P8A-bS
T33 chain: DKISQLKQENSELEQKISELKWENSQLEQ

P5A-bS = molecular target: T34, P5A-bS
T34 chain: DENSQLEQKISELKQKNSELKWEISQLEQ

interaction score (4H492-bN): -0.118
interaction score (4H741-bN): -0.326
interaction score (4H796-bA): 0.0979
interaction score (P1A-bS): -1.07
Binder: DEIQQLEQKNQELKQKIQELKWENQELKQ [4H492-bN]

interaction score (4H3427-bH): 0.596
interaction score (4H170-bH): 0.761
interaction score (4H797-bH): 0.264
interaction score (4H855-bH): -0.762
interaction score (4H457-bH): 1.82
interaction score (4H3112-bH): 0.343
interaction score (4H918-bH): 0.183
interaction score (4H953-bH): 0.0231
interaction score (4H3926-bH): 0.549
interaction score (4H346-bH): -0.205
interaction score (4H2673-bH): -0.0221
interaction score (4H2627-bH): 0.774
interaction score (4H2702-bH): 1.84
interaction score (4H1831-bH): -0.0127
interaction score (4H575-bH): -1.59
interaction score (4H754-bH): 1.02
interaction score (4H3010-bH): 2.38
interaction score (4H683-bH): -0.173
interaction score (4H780-bH): -0.492
interaction score (4H4073-bH): 1.14
interaction score (4H968-bH): 1.47
interaction score (4H2586-bH): -1.02
Binder: DEIQELEKENEELERKIWELKKEIQELKR [4H170-bH]

interaction score (P9A-bS): -1.08
interaction score (P6A-bS): 0.0466
interaction score (P7A-bS): -1.96
interaction score (P3A-bS): -0.598
interaction score (P4A-bS): -0.182
interaction score (P2A-bS): 1.9
interaction score (P8A-bS): -0.899
interaction score (P1A-bS): -0.982
interaction score (P5A-bS): -0.939
Binder: DEISQLEQENSELEQENSELEWEISQLEQ [P1A-bS]
